Reference: patent publication US20250326840A1 (QURE BIOTECHNOLOGY SHANGHAI, published 2025)

T1: QP093 (human SIRPα V1 ECD(E31-R370)-mFC(IgG2a)) (human)
T1 construct: also called Human SIRPα V1 recombinant protein (QP093)
T1 chain: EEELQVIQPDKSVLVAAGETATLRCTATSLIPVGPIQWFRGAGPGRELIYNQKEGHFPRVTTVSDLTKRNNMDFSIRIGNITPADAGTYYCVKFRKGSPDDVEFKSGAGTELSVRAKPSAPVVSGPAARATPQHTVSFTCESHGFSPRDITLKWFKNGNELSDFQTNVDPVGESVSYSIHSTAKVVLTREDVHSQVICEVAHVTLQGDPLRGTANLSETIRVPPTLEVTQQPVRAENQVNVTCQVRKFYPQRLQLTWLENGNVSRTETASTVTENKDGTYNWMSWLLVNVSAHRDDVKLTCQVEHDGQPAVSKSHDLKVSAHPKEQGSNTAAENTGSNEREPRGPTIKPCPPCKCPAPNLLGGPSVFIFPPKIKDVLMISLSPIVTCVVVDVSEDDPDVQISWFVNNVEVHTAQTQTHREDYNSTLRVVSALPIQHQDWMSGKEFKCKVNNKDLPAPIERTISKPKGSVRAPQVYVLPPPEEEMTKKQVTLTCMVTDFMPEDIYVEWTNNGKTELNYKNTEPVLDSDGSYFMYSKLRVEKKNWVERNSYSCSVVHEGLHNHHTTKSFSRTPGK

T2: SIRPα V4 fusion Fc (mouse IgG2a) (human, limits assumed)
T2 chain: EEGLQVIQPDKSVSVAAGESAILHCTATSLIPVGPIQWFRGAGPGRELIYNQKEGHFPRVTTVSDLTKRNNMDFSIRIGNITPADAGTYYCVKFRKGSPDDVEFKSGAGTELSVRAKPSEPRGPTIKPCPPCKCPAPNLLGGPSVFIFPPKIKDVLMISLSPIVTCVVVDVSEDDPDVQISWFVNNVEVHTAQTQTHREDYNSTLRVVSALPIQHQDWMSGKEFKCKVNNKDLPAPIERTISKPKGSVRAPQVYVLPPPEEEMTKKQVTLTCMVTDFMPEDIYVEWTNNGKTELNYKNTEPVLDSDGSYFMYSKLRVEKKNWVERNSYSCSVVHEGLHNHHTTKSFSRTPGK


Key:
QP096 (human SIRPα V2 …) [1] = target: T3, QP096 (human SIRPα V2 ECD(E31-R370)-flag-his) (human); assay: SPR, Biacore 8K
T3 construct: the construct carries flag and his tags; also called SIRPαV2-Flag-his; Human SIRPα V2 (QP096)

QP094 (human SIRPα V1 …) [2] = target: T4, QP094 (human SIRPα V1 ECD(E31-R370)-flag-his) (human, UniProt P78324 31-370); assay: SPR, Biacore 8K
T4 construct: the construct carries flag and his tags; also called SIRPαV1-flag-his; SIRPαV1-his (QP094)

QP095 (human SIRPα V2 …) = target: T5, QP095 (human SIRPα V2 ECD(E31-R370)-mFC(IgG2a)) (human); assay: ELISA, QP095 (SIRPα V2) coated, anti-hFab detection; unit from the x axis Log(Conc.(nM))
T5 construct: also called human SIRPα V2 recombinant protein (QP095)

QP093 (human SIRPα V1 …) = target: T1, QP093 (human SIRPα V1 …); assay: ELISA, QP093 (SIRPα V1) coated, anti-hFab detection; unit from the x axis Log(Conc.(nM))
QP096 (human SIRPα V2 …) [3] = target: T3, QP096 (human SIRPα V2 …); assay: SPR, Biacore
Target sequence in this assay (chain, as listed by the source limits assumed): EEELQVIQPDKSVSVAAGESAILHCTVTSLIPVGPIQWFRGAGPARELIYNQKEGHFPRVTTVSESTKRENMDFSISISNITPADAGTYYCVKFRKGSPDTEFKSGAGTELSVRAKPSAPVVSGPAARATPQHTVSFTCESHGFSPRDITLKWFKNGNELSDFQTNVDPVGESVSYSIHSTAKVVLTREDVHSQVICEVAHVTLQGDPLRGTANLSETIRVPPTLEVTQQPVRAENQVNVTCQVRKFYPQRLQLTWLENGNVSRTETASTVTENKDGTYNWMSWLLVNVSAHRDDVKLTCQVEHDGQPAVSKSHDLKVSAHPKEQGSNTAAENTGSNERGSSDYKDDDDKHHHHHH

QP094 (human SIRPα V1 …) [4] = target: T4, QP094 (human SIRPα V1 …); assay: SPR, Biacore
[5] = target: SIRPα V7 fusion Fc (mouse IgG2a) (human); assay: ELISA, SIRPα V7-mouse IgG2a Fc coated, anti-hFab detection; unit from the x axis Log(Conc.(nM))
QP096 (human SIRPα V2 …) [6] = target: T3, QP096 (human SIRPα V2 …); assay: binding ELISA, antigen coated
QP094 (human SIRPα V1 …) [7] = target: T4, QP094 (human SIRPα V1 …); assay: binding ELISA, antigen coated
[8] = target: SIRPα V8 fusion Fc (mouse IgG2a) (human); assay: ELISA, SIRPα V8-mouse IgG2a Fc coated, anti-hFab detection; unit from the x axis Log(Conc.(nM))
[9] = target: SIRPα V3 fusion Fc (mouse IgG2a) (human); assay: ELISA, SIRPα V3-mouse IgG2a Fc coated, anti-hFab detection; unit from the x axis Log(Conc.(nM))
[10] = target: T2, SIRPα V4 fusion Fc (mouse IgG2a); assay: ELISA, SIRPα V4-mouse IgG2a Fc coated, anti-hFab detection; unit from the x axis Log(Conc.(nM))
QP002 = target: T6, QP002 (biotinylated in the blocking assays, sites not given); assay: blocking ELISA: QP001.2 (CD47) coated, biotin-QP002 (SIRPα-FC) mixed with the antibody, HRP-streptavidin; blocked ligand: CD47; unit from the x axis Log[Conc.(ug/ml)]
T6 construct: also called SIRPα-FC; Biotin-QP002

[11] = target: SIRPα V10 fusion Fc (mouse IgG2a) (human); assay: ELISA, SIRPα V10-mouse IgG2a Fc coated, anti-hFab detection; unit from the x axis Log(Conc.(nM))
[12] = target: SIRPα V2 fusion Fc (mouse IgG2a) (human); assay: ELISA, SIRPα V2-mouse IgG2a Fc coated, anti-hFab detection; unit from the x axis Log(Conc.(nM))
[13] = target: SIRPα V8 fusion Fc (mouse IgG2a) (human); assay: ELISA, SIRPα V8-mouse IgG2a Fc coated, anti-hFab detection
Target sequence in this assay (chain, as listed by the source limits assumed): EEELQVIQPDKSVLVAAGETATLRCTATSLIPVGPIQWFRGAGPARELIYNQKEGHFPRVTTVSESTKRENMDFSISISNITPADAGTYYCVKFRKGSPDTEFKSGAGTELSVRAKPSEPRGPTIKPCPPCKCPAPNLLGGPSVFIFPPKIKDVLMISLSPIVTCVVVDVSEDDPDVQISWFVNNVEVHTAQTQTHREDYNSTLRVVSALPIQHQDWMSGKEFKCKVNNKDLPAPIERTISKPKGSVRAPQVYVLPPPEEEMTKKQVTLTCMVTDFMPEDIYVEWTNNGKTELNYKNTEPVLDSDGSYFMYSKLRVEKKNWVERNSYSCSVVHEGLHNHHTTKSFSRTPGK

[14] = target: SIRPα V7 fusion Fc (mouse IgG2a) (human); assay: ELISA, SIRPα V7-mouse IgG2a Fc coated, anti-hFab detection
Target sequence in this assay (chain, as listed by the source limits assumed): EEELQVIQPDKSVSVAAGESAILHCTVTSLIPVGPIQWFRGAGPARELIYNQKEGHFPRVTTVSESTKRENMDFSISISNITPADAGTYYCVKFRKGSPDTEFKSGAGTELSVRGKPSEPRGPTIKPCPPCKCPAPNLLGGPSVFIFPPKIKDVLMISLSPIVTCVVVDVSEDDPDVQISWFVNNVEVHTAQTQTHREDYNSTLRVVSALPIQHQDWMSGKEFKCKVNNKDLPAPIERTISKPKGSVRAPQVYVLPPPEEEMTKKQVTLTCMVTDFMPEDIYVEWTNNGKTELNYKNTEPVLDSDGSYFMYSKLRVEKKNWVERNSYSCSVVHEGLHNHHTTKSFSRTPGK

[15] = target: SIRPα V10 fusion Fc (mouse IgG2a) (human); assay: ELISA, SIRPα V10-mouse IgG2a Fc coated, anti-hFab detection; unit from the x axis; the curve is flat at the baseline, the fit is marked ambiguous (~)
Target sequence in this assay (chain, as listed by the source limits assumed): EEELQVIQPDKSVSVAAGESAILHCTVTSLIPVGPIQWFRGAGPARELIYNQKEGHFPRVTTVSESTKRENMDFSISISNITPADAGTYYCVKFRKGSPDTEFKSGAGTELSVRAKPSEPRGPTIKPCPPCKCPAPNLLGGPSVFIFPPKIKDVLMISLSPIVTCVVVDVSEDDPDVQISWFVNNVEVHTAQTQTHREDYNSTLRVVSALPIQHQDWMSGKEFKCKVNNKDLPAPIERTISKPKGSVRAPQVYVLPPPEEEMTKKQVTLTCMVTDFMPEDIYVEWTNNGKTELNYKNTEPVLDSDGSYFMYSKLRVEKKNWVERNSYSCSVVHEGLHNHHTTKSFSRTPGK

EC50 (QP095 (human SIRPα V2 …))	EC50 (QP093 (human SIRPα V1 …))	Kd (QP096 (human SIRPα V2 …) [3])	Kd (QP094 (human SIRPα V1 …) [4])	EC50 [5]	EC50 (QP096 (human SIRPα V2 …) [6])	EC50 (QP094 (human SIRPα V1 …) [7])	EC50 [8]	EC50 [9]	EC50 [10]	IC50 (QP002)	EC50 [11]	EC50 [12]	Binder	further results
0.249 nM	0.237 nM	13.6 nM	3.43 nM	0.147 nM	3.31 ng/mL	5.29 ng/mL	0.18 nM	0.135 nM	0.115 nM	45.4 ng/mL	0.137 nM	0.137 nM	QP026249 (KWAR23 analog) (antibody, human IgG4 S228P, kappa, also called KAWA23 analog; control antibody KWAR23 (QP026249), human IgG4) heavy: not shown light: QIVLTQSPAIMSASPGEKVTLTCSASSSVSSSYLYWYQQKPGSSPKLWIYSTSNLASGVPARFSGSGSGTSYSLTISSMEAEDAASYFCHQWSSYPRTFGAGTKLELKRTVAAPSVFIFPPSDEQLKSGTASVVCLLNNFYPREAKVQWKVDNALQSGNSQESVTEQDSKDSTYSLSSTLTLSKADYEKHKVYACEVTHQGLSSPVTKSFNRGEC	Kd (QP096 (human SIRPα V2 …) [1]): 17.5 nM; koff (QP096 (human SIRPα V2 …) [1]): 0.0242 s⁻¹; kon (QP096 (human SIRPα V2 …) [1]): 1.38e+06 M⁻¹ s⁻¹; Kd (QP094 (human SIRPα V1 …) [2]): 4.69 nM; koff (QP094 (human SIRPα V1 …) [2]): 0.00386 s⁻¹; kon (QP094 (human SIRPα V1 …) [2]): 822000 M⁻¹ s⁻¹
		0.0446 nM	0.0354 nM	0.0707 nM	0.624 ng/mL	0.651 ng/mL	0.0851 nM	0.0635 nM	0.0574 nM	12.9 ng/mL	0.0682 nM	0.0682 nM	QP256279 (antibody, human IgG4, V domains shown, Human IgG4 heavy constant region and kappa CL) VH: QVQLVQSGAEVKKPGASVKVSCKASGYTFTNYWINWVRQAPGQGLEWIAMIDPSDSETHYNQIFKDRATLTTDTSTSTAYMELRSLRSDDTAVYYCAMDYGSLYAMDYWGRGTLVTVSS VL: DIVLTQSPDSLAVSLGERATINCRASQSVRSSGYNWIFWYQQKPGQPPKLLIYLASNRDSGVPDRFSGSGSGTDFTLTISSLQAEDVAVYYCQHSRELPTFGQGTKLEIK	
0.16 nM	0.142 nM												QP32700279 (antibody, human IgG1, kappa, L234A L235A, V domains shown, also called SIRPα monoclonal antibody CHO71) VH: QVQLVQSGAEVKKPGASVKVSCKASGYTFTNYWINWVRQAPGQGLEWIAMIDPSDSETHYNQIFKDRATLTTDTSTSTAYMELRSLRSDDTAVYYCAMDYGSLYAMDYWGRGTLVTVSS VL: DIVLTQSPDSLAVSLGERATINCRASQSVRSSGYNWIFWYQQKPGQPPKLLIYLASNRDSGVPDRFSGSGSGTDFTLTISSLQAEDVAVYYCQHSRELPTFGQGTKLEIKR	
									0.125 nM				QP250251 (18D5 analog) (antibody, human IgG4 S228P, kappa, V domains shown, also called SIRPα antibody 18D5 from OSE) VH: QVQLQQPGAELVRPGSSVKLSCKASGYTFTSYWVHWVKQRPIQGLEWIGNIDPSDSDTHYNQKFKDKASLTVDKSSSTAYMQLSSLTFEDSAVYYCVRGGTGTMAWFAYWGQGTLVTVSA VL: DVVMTQTPLSLPVSLGDQASISCRSSQSLVHSYGNTYLYWYLQKPGQSPKLLIYRVSNRFSGVPDRFSGSGSGTDFTLKISRVEAEDLGVYFCFQGTHVPYTFGSGTKLEIKR	binding result [13]: no binding (tested: about 67 nM (last point at log 1.8)); binding result [14]: no binding (tested: about 67 nM (last point at log 1.8)); EC50 [15]: ~0.0554 nM
